From paper PMC8476842, “Uncovering and Engineering a Mini-Regulatory Network of the TetR-Family Regulator SACE_0303 for Yield Improvement of Erythromycin in Saccharopolyspora erythraea”

T1: SACE_0303 (TetR-family regulator) (Saccharopolyspora erythraea) (UniProt A4F6H8)
T1 sequence: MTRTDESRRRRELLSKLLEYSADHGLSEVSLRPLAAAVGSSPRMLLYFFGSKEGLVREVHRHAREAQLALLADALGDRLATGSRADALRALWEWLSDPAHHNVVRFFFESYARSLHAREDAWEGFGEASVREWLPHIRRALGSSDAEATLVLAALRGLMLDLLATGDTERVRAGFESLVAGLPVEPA

T2: SACE_0303 (TetR-family regulator) (Saccharopolyspora erythraea, UniProt A4F6H8 1-187)
T2 sequence: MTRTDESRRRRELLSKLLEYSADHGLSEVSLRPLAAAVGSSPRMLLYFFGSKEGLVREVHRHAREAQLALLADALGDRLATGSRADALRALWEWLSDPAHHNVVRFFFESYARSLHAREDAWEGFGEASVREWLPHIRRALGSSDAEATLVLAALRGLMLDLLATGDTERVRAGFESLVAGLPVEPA


How the values were obtained:
[1] = molecular target: T1, SACE_0303 (TetR-family regulator) (Saccharopolyspora erythraea); experiment: EMSA; details: EMSA: 10 mM Tris-HCl pH 7.5, 60 mM KCl, 50 mM EDTA (so in the source), 10 mM DTT, 5 mM MgCl2, 10% glycerol, 150 ng probe, 20 uL, 30 C 20 min; footprint at 20 C
[2] = molecular target: T1, SACE_0303 (TetR-family regulator) (Saccharopolyspora erythraea); experiment: DNase I footprinting; details: EMSA: 10 mM Tris-HCl pH 7.5, 60 mM KCl, 50 mM EDTA (so in the source), 10 mM DTT, 5 mM MgCl2, 10% glycerol, 150 ng probe, 20 uL, 30 C 20 min; footprint at 20 C
[3] = molecular target: T2, SACE_0303 (TetR-family regulator); experiment: EMSA; EMSA: 10 mM Tris-HCl pH 7.5, 60 mM KCl, 50 mM EDTA (so in the source), 10 mM DTT, 5 mM MgCl2, 10% glycerol, 150 ng probe, 20 uL, 30 C 20 min; footprint at 20 C; details: protein: recombinant; tags: His6 (pET28a, NdeI/HindIII); chain copies: 2; blunt

| Molecule | binding [1] | binding [2] | binding result [3] |
| --- | --- | --- | --- |
| AGCTTTGACAGGTCCGCCACGCGTCCCCCTACTCGACGACCACGCAATGGGCGAACAATATAGGAAGGATCAAGAGGTTGACATCGCCTCGTCGAGCCAACGAACCTGTGAACATCTGCATGTTGACAAGATCAACGGCGGCTACCTACTGTGGTGGCCCAGTGACGGGTTGCCGCACATCGCGCTGGGGAGATTCTTTGAATTTCGCCCGTAGCACCGACCTGGAAAGCGAGCAAATGCTCCGGTGAATGGGATCAGTGATTC (double strand) [PeryAI] | no binding | – | – |
| CGACCTCGGCCGCCTGCTGTCCTGCCGGCGGGCGGCACGTGCCGCGGTCCGCTGAAACGGTTGCGAAAACGGGAAATCACCGCTGAGGGTGGCCGCCGCCGGCGGATTGCGCCGCCGAGATCGGCATGCCTAGGCTTCCACCACCGCTCCATCACGTGCGGGGTCCGGGTCCGGGAGCAGCCGATGCCGCAAGACGCGTGTACTTCCGCCCGGCAGAACACGTCCTCG (double strand) [P3156] | binds | – | – |
| GGCGACGGCGGCTTTCGTCGGTGCGGGTCATCCGGATATCGTACTGAAACGACTGTTTCAGGAGGGCGCATGGGCGGCATCGAGATCCGCACCGGCCCGC (double strand) [P0303-0304] | binds | binds | – |
| CGCTGGATCCTACCAACCGGCACGATTGTCCAGCCCACAACAGCATCGCGGTGCCACGTGTGGACCGCGTCGGTCAGATCCTCCCCGCACCTCTCGCCAGCCGTCAAGATCGACCGCGTGCACCTGCGATCGCCGATCAACCGCGACTAGCATCGGGCGCAAGCCGCCACTCGAACGGACACTCGC (double strand) [PermE] | no binding | – | – |
| P0303-0304-56 bpM (dsDNA) DNA 1: GGGTCATCCGGATATCGTAAAGCTTGGACTGGAATTCGAGGGCGCATGGGCGGCAT DNA 2: ATGCCGCCCATGCGCCCTCGAATTCCAGTCCAAGCTTTACGATATCCGGATGACCC | – | – | no binding |
